Measurements as given in the supplement of paper PMC10567573.
± gives the standard deviation.

Test: protein stability index of a GFP-peptide fusion (GPS, HEK-293T) (PSI 1-6); higher = more stable
[1] = treatment: DMSO, c terminus: a fixed tail appended
[2] = treatment: MLN4924 1 uM, 8 h, c terminus: a fixed tail appended
[3] = treatment: DMSO, c terminus: native
[4] = treatment: MLN4924 1 uM, 8 h, c terminus: native
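Further: 24-mer peptide tiles fused after GFP, lentivirally expressed, FACS-sorted into six equal bins by GFP/DsRed ratio, decoded by Illumina sequencing, PSI is the read-weighted mean bin number.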

Sequence	protein stability index [1]	protein stability index [2]	protein stability index [3]	protein stability index [4]
KVKPAEAETAGAIMAFFLCLGLAL [SLC29A1]	2.99 ± 0.62	2.86 ± 0.71	–	–
GASTFKEEPQTVPEARSRDATPPV [JUNB]	5.34 ± 0.19	5.32 ± 0.15	–	–
LNVQKTVDYTGQAKAQVRKAVQYE [STX11]	3.99 ± 0.11	4.09 ± 0.19	–	–
ALSPSATAKRINRTSLSSGATVRS [CDC14A]	4.1 ± 0.11	4.16 ± 0.11	–	–
STNEITYGLPIMVTLMVAKWTGDF [CLCN6]	3.16 ± 0.38	3.03 ± 0.45	–	–
PITAHAEVEVVEEAKCCCFFKRKR [CSNK1G1]	2.96 ± 0.73	3.23 ± 1.2	–	–
CPVVRNGSVAVVEAECEKSSATTY [SLC6A17]	4.64 ± 0.44	4.82 ± 0.17	–	–
HRGLLTMQLKSPMPSSTTQKDSYQ [SPAG8]	3.87 ± 0.25	4 ± 0.21	–	–
QSIQQAMRYLRNHCLDQVGLFRKS [DLC1]	2.73 ± 0.091	2.26 ± 0.28	–	–
GALMEVMQKRSKAIHSSDEDEDED [WASL]	5.49 ± 0.19	5.41 ± 0.17	–	–
KQNKQVLGYCLLLMLAGMGLHYIA [DNAJC4]	2.23 ± 0.31	2.46 ± 0.37	–	–
FTNDKIINLPVEEFNELLSKYQLS [NFE2L1]	2.85 ± 0.28	2.76 ± 0.16	–	–
TLHAVEKLQVRLATKTEPKKLEKY [ELOA2]	3.7 ± 0.31	3.73 ± 0.41	–	–
MSPGPLDALSSPTSVQEADETTRS [C2CD2L]	5.35 ± 0.37	5.38 ± 0.15	–	–
FLQKSSVGITVLNLCALSVDRYRA [EDNRA]	2.69 ± 0.54	2.75 ± 0.54	–	–
SPKYKQDVEGAESQLDEDEHGLHT [TRAF3IP2]	5.45 ± 0.14	5.5 ± 0.27	–	–
LPLMDLCRRSVRLALGRERLGEIH [SPSB1]	2.56 ± 0.28	2.42 ± 0.29	–	–
DRSRTVSASSTGDLPKAKTRAADL [SRPK2]	4.94 ± 0.11	4.68 ± 0.24	–	–
YYFGPCGKYNAMVLELLGPSLEDL [CSNK1G3]	3 ± 1.3	2.66 ± 0.43	–	–
ENEQRRLFIQKEEQLQQILKRKNK [MNAT1]	4.38 ± 0.18	4.21 ± 0.2	–	–
ACMMTITFLPYTFSLMVTFPDVPL [TMEM175]	3.1 ± 0.09	3.26 ± 0.33	–	–
HTEDFQKEEGTVNGASWHTVAGSL [CPXM2]	4.63 ± 0.069	4.76 ± 0.38	–	–

Sequence	protein stability index [1]	protein stability index [2]	protein stability index [3]	protein stability index [4]
LGPSPQRDPQAVKERALSAPWLSL [ZNF263]	2.72 ± 0.14	2.77 ± 0.29	–	–
LSGVDLELVGSGYRMSLVKRRFAT [FCHO1]	2.33 ± 0.2	2.37 ± 0.18	–	–
DVKRLGKQNARFLTSMRRLSSIKR [STX11]	2.9 ± 0.35	2.98 ± 0.42	–	–
AAAAMYTFLPDNFSPAKPKPSKEL [MYORG]	3.62 ± 0.11	3.59 ± 0.3	–	–
VLVLCVFNSILPGVLILFLTFFAF [SOAT1]	3.37 ± 0.25	3.17 ± 0.22	–	–
KEYPVVPRSTVRQKVASNHSPFSS [TBX5]	3.61 ± 0.38	3.72 ± 0.32	–	–
VASKMKETIPLTAEKLCIYTDNSI [CCND1]	3.15 ± 0.42	3.33 ± 0.084	–	–
SLFCLEDKELLCCSCQADPRHQGH [TRIM35]	3.06 ± 0.16	3.35 ± 0.4	–	–
HASGDASYSAGDSGDAAAQPAFTG [EPB41L3]	5.32 ± 0.21	5.21 ± 0.21	–	–
REQMEQMKQRIAEENIMKSNIDKK [FAM50A]	5.08 ± 0.31	5.24 ± 0.11	–	–
NGTEDLPYAMKPIDYYTETKILQE [NSDHL]	4.28 ± 0.17	4.22 ± 0.051	–	–
CEKFLQEVDFFQRYFIADLPHLQD [INTS4]	2.49 ± 0.54	1.95 ± 0.48	–	–
VLIDLWKITKVMDVRLDREHRVAG [CLPTM1]	2.49 ± 0.68	2.57 ± 0.83	–	–
AAAQAPENFQEGKDMSESQDEVPD [TAF7L]	5.62 ± 0.24	5.58 ± 0.23	–	–
RRSSLVITTKIFWGGKAETERGLS [KCNAB2]	2.09 ± 0.42	2.15 ± 0.29	–	–
WVCQRSTVASMMHRQETVECLKKF [CAMK2B]	2.73 ± 0.51	2.9 ± 0.52	–	–
GKKDVSHSSPVDLKIPQVRGMDLS [LCOR]	4.32 ± 0.31	4.24 ± 0.36	–	–
TEDCPTGSALTFREEQCAAYNHRT [ADAMTS4]	5.09 ± 0.22	5.03 ± 0.12	–	–
ILTERVSLPFKPFAIILPILLNIR [MIA2]	2.25 ± 0.55	3.79 ± 0.64	–	–
SFSGKVFPFFAVWKKGSCLTLKG [TRIM15]	–	–	3.25 ± 0.88	2.92 ± 0.61
NICHVWHMNVEALPEWISCLIQKA [RNF180]	2.01 ± 0.24	2.57 ± 0.38	–	–
GGGDISVKELGTVMRMLGQTPTKE [TNNC2]	4.04 ± 0.05	3.64 ± 0.83	–	–

Sequence	protein stability index [1]	protein stability index [2]	protein stability index [3]	protein stability index [4]
RNKIIAATIENAQPILQIDNARLA [KRT16]	3.35 ± 0.13	3.64 ± 0.14	–	–
NMSSSRGPLPVKRGPPPRSGGPPP [RBMX]	4.41 ± 0.22	4.45 ± 0.45	–	–
KKRVSMILQSPAFCEELESMIQEQ [ADD1]	3.58 ± 0.27	3.76 ± 0.43	–	–
MGGPAISMASPMSIPTNTMHYGS [CARM1]	–	–	2.96 ± 0.25	2.95 ± 0.23
LRDEHRCASKYGRDWERYTAAVPY [DHCR7]	2.67 ± 0.12	2.92 ± 0.2	–	–
RDLINCCYVSRRLSQLSSHDPLWR [FBXO3]	2.09 ± 0.28	2.31 ± 0.29	–	–
VKEKFSPEAFTEQLYRYVTKLLV [ALG2]	–	–	3.38 ± 0.3	3.16 ± 0.16
MAGAATGSRTPGRSELVEGCGWRC [TRIM14]	3.46 ± 0.32	3.61 ± 0.26	–	–
QCGPQTGLQSPGTLQPPEFLYSHG [TBX5]	3.41 ± 0.25	3.37 ± 0.34	–	–
VMTLPSDLRKHRRKLLSPVSREEN [PPFIA4]	3.61 ± 0.24	3.9 ± 0.49	–	–
QLHKPLAEGTPRSNHSAQDSAVEN [IKZF1]	5.35 ± 0.35	5.39 ± 0.3	–	–
IHGLPTEGYQALYHAVVEPMLWNP [C22orf31]	2.19 ± 0.11	2.13 ± 0.21	–	–
QKLETDAMFRLEHGEADRSTLKKA [YJU2B]	5.22 ± 0.22	5.03 ± 0.14	–	–
LLHSRNEGVATYAAAVLFRMSEDK [CTNNB1]	2.9 ± 0.36	3.22 ± 0.087	–	–
QEVSSVRSLSSTGSLPSHAPPSED [DLC1]	5.42 ± 0.22	5.44 ± 0.24	–	–
ISDNSISWSAGLHNRYTENSLRGV [FUT8]	2.87 ± 0.29	2.87 ± 0.15	–	–
KTAHDSNVLHVARLPNRQLISCSE [WDR41]	3.6 ± 0.28	3.57 ± 0.35	–	–
ARIRDEEAQRASFLQNAVLAYVQA [LRRC45]	2.46 ± 0.2	2.49 ± 0.29	–	–
RVHAGSKAALAALCPGDLIQAING [PDLIM4]	2.95 ± 0.15	3.03 ± 0.12	–	–
GRWVNENCRLQSPYFSPSASFHHK [CBY2]	2.89 ± 0.19	2.86 ± 0.31	–	–
AKQLFRKLNEQSPTRCTLEAGAMT [SEC22B]	2.45 ± 0.21	2.6 ± 0.17	–	–
